One experiment addresses T1, recombinant human corin (Homo sapiens, UniProt Q9Y5Q5).
T1 construct: expressed in transfected cells; host or cells: HEK293
T1 sequence (Q9Y5Q5 1-1042): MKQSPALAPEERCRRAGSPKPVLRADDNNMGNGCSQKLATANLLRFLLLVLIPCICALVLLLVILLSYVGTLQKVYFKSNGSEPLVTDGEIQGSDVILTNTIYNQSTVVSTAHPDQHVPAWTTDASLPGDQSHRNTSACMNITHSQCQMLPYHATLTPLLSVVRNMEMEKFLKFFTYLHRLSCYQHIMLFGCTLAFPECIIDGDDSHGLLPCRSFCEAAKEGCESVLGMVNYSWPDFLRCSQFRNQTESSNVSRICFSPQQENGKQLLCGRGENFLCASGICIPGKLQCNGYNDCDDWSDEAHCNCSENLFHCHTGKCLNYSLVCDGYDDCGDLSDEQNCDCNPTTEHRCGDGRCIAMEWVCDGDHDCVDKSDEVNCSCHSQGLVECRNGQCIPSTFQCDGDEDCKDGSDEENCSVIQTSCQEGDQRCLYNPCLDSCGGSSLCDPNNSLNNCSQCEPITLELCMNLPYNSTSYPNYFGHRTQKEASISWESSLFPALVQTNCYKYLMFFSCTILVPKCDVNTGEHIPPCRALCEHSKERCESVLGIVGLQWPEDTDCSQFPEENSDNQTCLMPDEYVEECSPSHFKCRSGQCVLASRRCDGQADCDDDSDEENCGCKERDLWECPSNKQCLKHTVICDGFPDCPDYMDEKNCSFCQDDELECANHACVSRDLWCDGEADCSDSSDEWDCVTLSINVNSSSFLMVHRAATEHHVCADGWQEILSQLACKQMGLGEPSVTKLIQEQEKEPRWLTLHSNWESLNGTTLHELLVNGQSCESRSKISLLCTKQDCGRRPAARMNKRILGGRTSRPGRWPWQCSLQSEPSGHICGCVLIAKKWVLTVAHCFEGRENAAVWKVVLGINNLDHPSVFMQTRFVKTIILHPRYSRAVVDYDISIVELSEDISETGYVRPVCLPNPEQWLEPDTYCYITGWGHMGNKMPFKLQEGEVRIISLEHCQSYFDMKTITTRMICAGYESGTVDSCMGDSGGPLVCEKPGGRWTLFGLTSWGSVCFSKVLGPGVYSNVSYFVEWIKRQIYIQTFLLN
The experiment is described as follows: PCSK1-9 plasmids transfected in HEK293 cells expressing recombinant human corin (Western analysis). Type of experiment: cell-based. The settings on record: plasmid transfected. The source says: The PCSK family has 9 members. PCSK1-9 plasmids were transfected in HEK293 cells expressing recombinant human corin. […] By RT-PCR, PCSK6 mRNA was detected in HEK293 and HL-1 cells and in mouse and human hearts where corin is normally expressed. Yan et al., J Biol Chem 274, 14926-14935 (1999). The results were consistent with previous reports of PCSK6 expression in atrial and ventricular cardiomyocytes. Beaubien et al., Cell Tissue Res 279, 539-549 (1995).
(§1) Plasmids expressing human corin WT and mutants R801A, S985A, T555I, Q568P, T555I/Q568P, K317E, S472G and R539C were reported previously. Dong, N. et al., J Biol Chem 289, 17909-17916 (2014); Knappe et al., J Biol Chem 278, 52363-52370 (2003); Wu et al., J Biol Chem 277, 16900-16905. (2002). Plasmids expressing human PCSK1-9 were made by cloning respective cDNAs into pcNDA3.1 vector. Recombinant corin and PCSK proteins encoded by these plasmids contained a C-terminal V5 or flag tag for protein detection in Western blotting.
HEK293 and HL-1 cells were transfected with corin or PCSK6 expression plasmids. After 48-72 h, cells were lysed in a buffer containing 25 mM Tris-HCl, pH 7.4, 150 mM NaCl, 1 mM EDTA, 1% (v/v) NP-40, and 1% (v/v) protease inhibitor cocktail. […] Percentage of corin activation (corin-p vs. corin fragments) was quantified by densitometric analysis of Western blots.

Experiment [1] deals with T2, corin variant T555I/Q568P (Homo sapiens, UniProt Q9Y5Q5, Q568P/T555I).
T2 construct: expressed in transfected cells; host or cells: HEK293
T2 sequence (Q9Y5Q5 1-1042 T555I/Q568P): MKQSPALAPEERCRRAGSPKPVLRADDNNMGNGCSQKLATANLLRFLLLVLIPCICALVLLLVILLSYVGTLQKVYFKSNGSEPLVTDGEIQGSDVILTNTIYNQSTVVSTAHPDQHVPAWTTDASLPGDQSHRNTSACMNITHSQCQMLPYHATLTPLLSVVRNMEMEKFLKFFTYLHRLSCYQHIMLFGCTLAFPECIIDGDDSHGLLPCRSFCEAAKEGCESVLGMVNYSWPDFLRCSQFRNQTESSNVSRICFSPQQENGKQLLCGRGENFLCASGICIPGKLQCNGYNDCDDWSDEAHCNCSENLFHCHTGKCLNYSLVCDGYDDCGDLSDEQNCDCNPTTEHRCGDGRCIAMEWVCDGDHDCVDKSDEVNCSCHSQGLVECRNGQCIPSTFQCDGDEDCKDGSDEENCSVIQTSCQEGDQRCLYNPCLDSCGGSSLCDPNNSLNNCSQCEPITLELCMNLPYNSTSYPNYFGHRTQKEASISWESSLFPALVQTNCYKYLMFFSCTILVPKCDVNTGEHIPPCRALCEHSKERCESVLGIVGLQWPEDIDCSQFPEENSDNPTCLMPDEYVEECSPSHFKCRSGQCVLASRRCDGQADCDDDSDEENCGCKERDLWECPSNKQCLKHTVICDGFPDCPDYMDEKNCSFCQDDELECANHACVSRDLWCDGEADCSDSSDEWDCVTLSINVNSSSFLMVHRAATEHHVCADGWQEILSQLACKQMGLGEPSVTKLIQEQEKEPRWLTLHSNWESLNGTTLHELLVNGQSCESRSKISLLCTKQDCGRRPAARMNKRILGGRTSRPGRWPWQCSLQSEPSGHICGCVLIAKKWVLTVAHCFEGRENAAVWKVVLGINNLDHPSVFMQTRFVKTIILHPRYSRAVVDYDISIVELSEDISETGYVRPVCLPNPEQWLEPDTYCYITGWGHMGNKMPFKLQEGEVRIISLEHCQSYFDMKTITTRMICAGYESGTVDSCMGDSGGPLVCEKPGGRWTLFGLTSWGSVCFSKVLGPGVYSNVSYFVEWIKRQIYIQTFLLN
The experiment is described as follows: PCSK6-mediated corin activation in HEK293 cells, corin variant T555I/Q568P. The settings on record: corin T555I/Q568P mutant, Western, densitometry. Type of experiment: cell-based.
Excerpt: as §1
HEK293 and HL-1 cells were transfected with corin or PCSK6 expression plasmids. After 48-72 h, cells were lysed in a buffer containing 25 mM Tris-HCl, pH 7.4, 150 mM NaCl, 1 mM EDTA, 1% (v/v) NP-40, and 1% (v/v) protease inhibitor cocktail. Recombinant corin and PCSK6 proteins were immunoprecipitated with an anti-V5 or anti-flag antibody. Western blotting was carried out to analyze corin expression and activation or PCSK6 expression with or without reducing agents. Percentage of corin activation (corin-p vs. corin fragments) was quantified by densitometric analysis of Western blots.

B1: proprotein convertase subtilisin/kexin-6 (protein, listed as Homo sapiens)
chain: MPPRAPPAPGPRPPPRAAAATDTAAGAGGAGGAGGAGGPGFRPLAPRPWRWLLLLALPAACSAPPPRPVYTNHWAVQVLGGPAEADRVAAAHGYLNLGQIGNLEDYYHFYHSKTFKRSTLSSRGPHTFLRMDPQVKWLQQQEVKRRVKRQVRSDPQALYFNDPIWSNMWYLHCGDKNSRCRSEMNVQAAWKRGYTGKNVVVTILDDGIERNHPDLAPNYDSYASYDVNGNDYDPSPRYDASNENKHGTRCAGEVAASANNSYCIVGIAYNAKIGGIRMLDGDVTDVVEAKSLGIRPNYIDIYSASWGPDDDGKTVDGPGRLAKQAFEYGIKKGRQGLGSIFVWASGNGGREGDYCSCDGYTNSIYTISVSSATENGYKPWYLEECASTLATTYSSGAFYERKIVTTDLRQRCTDGHTGTSVSAPMVAGIIALALEANSQLTWRDVQHLLVKTSRPAHLKASDWKVNGAGHKVSHFYGFGLVDAEALVVEAKKWTAVPSQHMCVAASDKRPRSIPLVQVLRTTALTSACAEHSDQRVVYLEHVVVRTSISHPRRGDLQIYLVSPSGTKSQLLAKRLLDLSNEGFTNWEFMTVHCWGEKAEGQWTLEIQDLPSQVRNPEKQGKLKEWSLILYGTAEHPYHTFSAHQSRSRMLELSAPELEPPKAALSPSQVEVPEDEEDYTAQSTPGSANILQTSVCHPECGDKGCDGPNADQCLNCVHFSLGSVKTSRKCVSVCPLGYFGDTAARRCRRCHKGCETCSSRAATQCLSCRRGFYHHQEMNTCVTLCPAGFYADESQKNCLKCHPSCKKCVDEPEKCTVCKEGFSLARGSCIPDCEPGTYFDSELIRCGECHHTCGTCVGPGREECIHCAKNFHFHDWKCVPACGEGFYPEEMPGLPHKVCRRCDENCLSCAGSSRNCSRCKTGFTQLGTSCITNHTCSNADETFCEMVKSNRLCERKLFIQFCCRTCLLAG
modifications: C-terminal FLAG tag
With B1, in the experiment with recombinant human corin, the “corin activation on PCSK overexpression (loss of corin zymogen band)” value was “enhanced corin activation”. Further, the “PCSK6-mediated corin activation, reduction vs. WT (in words)” value in experiment [1] was “markedly reduced”.

For the origin of these results see patent US10314894B2, “Treatment of cardio-renal disease using PCSK6” (THE CLEVELAND CLINIC FOUNDATION, priority 2014, dated 2019).
